Measurements: publication PMC6255954 (British Journal of Pharmacology, 2018)

What was measured:
[1] = target: T1, GFP‐tagged human NOP receptor in HEK cells (HEK_(hNOP‐GFP)) (human, UniProt P41146 1-370); test: radioligand binding; displacement of [3H]-N/OFQ in HEK_(hNOP) and HEK_(hNOP-GFP) cells, room temperature; conditions: one partner purified
T1 construct: nociceptin/orphanin FQ (N/OFQ) peptide receptor (NOP), human, GFP-tagged, recombinant in HEK cells; source: HEK cells expressing GFP-tagged NOP; live cells on coverslips (confocal, FRET) and radioligand displacement
T1 sequence (P41146 whole entry): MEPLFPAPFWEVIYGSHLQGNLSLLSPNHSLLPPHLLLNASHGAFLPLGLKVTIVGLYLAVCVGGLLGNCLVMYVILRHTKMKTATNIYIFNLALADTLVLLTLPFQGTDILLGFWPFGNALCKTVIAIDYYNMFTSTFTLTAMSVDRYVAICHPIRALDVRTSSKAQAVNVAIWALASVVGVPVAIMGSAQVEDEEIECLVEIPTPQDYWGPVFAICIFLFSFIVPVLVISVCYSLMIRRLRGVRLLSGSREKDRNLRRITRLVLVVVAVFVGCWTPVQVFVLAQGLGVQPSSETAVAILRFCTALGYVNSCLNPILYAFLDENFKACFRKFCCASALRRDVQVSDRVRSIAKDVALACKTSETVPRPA

[2] = target: T2, human N/OFQ peptide (NOP) receptor, recombinant in HEK cells (HEK_(hNOP)) (human, UniProt P41146 1-370); test: as above; conditions: one partner purified
T2 construct: nociceptin/orphanin FQ (N/OFQ) peptide receptor (NOP), human, recombinant in HEK cells, no GFP; also called HEKNOP; source: HEK cells expressing the recombinant NOP receptor; live cells on coverslips (confocal) and radioligand displacement
T2 sequence (P41146 whole entry): as above

[3] = target: T3, human N/OFQ peptide (NOP) receptor, recombinant in CHO cells (CHO_(hNOP)) (human, UniProt P41146 1-370); test: radioligand binding; displacement of ~0.8 nM [3H]-N/OFQ from CHO_(hNOP) membranes (20-40 ug protein) by 1 pM-10 uM ligand; 50 mM Tris-HCl pH 7.4 with 0.5% BSA, room temperature, 1 h, vacuum filtration; non-specific binding with 1 uM N/OFQ; conditions: one partner purified
T3 construct: nociceptin/orphanin FQ (N/OFQ) peptide receptor (NOP), human, recombinant in CHO cells; used as cell membranes; source: CHO cells, stably transfected, cell membranes
T3 sequence (P41146 whole entry): as above

[4] = target: T1, GFP‐tagged human NOP receptor in HEK …; test: cell-based or functional assay
[5] = target: T1, GFP‐tagged human NOP receptor in HEK …; test: confocal microscopy of a fluorescent ligand on live cells; N/OFQ_(ATTO594) added cumulatively (1 pM-100 nM) to HEK_(hNOP) or HEK_(hNOP-GFP) cells on coverslips, 5 min at 4°C in Krebs buffer pH 7.4, washed, imaged with the 594 nm laser; corrected total cell fluorescence; saturation curve; conditions: one partner purified
[6] = target: T2, human N/OFQ peptide (NOP) receptor, …; test: as above; conditions: one partner purified

pKi [1]: 8.98
pKi [2]: 9.14
pKi [3]: 9.21
pEC50, inhibition of forskolin-stimulated cAMP formation in HEK_(hNOP-GFP) cells, 0.1 pM-1 μM, 37°C, 15 min [4]: 9.73
pKd [5]: 8.53
pKd [6]: 9.51
Binder: FGGFTGARKSARKLANQC (ATTO 594 on Cys18; C-terminal amide (NH2)) [[Cys(ATTO 594)^18]N/OFQ‐NH2]
